Measurements from US20150203577A1 (Chugai, published 2015).

What was measured:
[1] = biological target: T1, mouse FcγRIII extracellular domain, C-terminal His tag (mouse, UniProt P08508 31-215); assay: SPR (Biacore T200); KD of H237-mIgG1/MRAL-k0 / KD of variant
T1 construct: Whole entry named; also called mFcγRIII; mFcgRIII
T1 chain: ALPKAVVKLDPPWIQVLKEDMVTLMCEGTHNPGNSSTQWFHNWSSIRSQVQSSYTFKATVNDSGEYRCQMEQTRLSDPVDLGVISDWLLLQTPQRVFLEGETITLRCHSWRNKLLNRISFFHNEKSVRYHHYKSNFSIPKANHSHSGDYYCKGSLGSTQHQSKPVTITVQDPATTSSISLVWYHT

[2] = biological target: T2, mouse FcγRII extracellular domain, C-terminal His tag (mouse, UniProt P08101 30-210); assay: as above
T2 construct: Whole entry named; also called mFcγRII; mFcgRII
T2 sequence: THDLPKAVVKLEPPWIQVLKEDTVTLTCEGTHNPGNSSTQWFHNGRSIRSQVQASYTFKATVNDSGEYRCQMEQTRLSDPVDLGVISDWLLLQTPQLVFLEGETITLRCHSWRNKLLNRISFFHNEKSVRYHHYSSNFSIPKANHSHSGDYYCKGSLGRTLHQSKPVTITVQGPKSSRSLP

B1: H237-MB621/MRAL-k0 (antibody, mouse IgG1, kappa)
heavy: QVQLQESGPGLVKPSETLSLTCAVSGHSISHDHAWSWVRQPPGEGLEWIGFISYSGITNYNPSLQGRVTISRDNSKNTLYLQMNSLRAEDTAVYYCARSLARTTAMDYWGEGTLVTVSSAKTTPPSVYPLAPGSAAQTNSMVTLGCLVKGYFPEPVTVTWNSGSLSSGVHTFPAVLQSDLYTLSSSVTVPSSTWPSETVTCNVAHPASSTKVDKKIVPRDCGCKPCICTVPEVDEVFIFPPKPKDVLTITLTPKVTCVVVDISKDDPEVQFSWFVDDVEVHTAQTQPREEQFNSTFRSVSELPIMHQDWLNGKEFKCRVNSAAFPAPIEKTISKTKGRPKAPQVYTIPPPKEQMAKDKVSLTCMITDFFPEDITVEWQWNGQPAENYKNTQPIMDTDGSYFVYSKLNVQKSNWEAGNTFTCSVLHEGLHNHHTEKSLSHSPGK
light: not shown
notes: copies: 2 + 2
relative mFcγRIII-binding activity (mIgG1 = 1) [1]: 0.23 fold
relative mFcγRII-binding activity (mIgG1 = 1) [2]: 3.15 fold

B2: H237-MB682/MRAL-k0 (antibody)
heavy: QVQLQESGPGLVKPSETLSLTCAVSGHSISHDHAWSWVRQPPGEGLEWIGFISYSGITNYNPSLQGRVTISRDNSKNTLYLQMNSLRAEDTAVYYCARSLARTTAMDYWGEGTLVTVSSAKTTPPSVYPLAPGSAAQTNSMVTLGCLVKGYFPEPVTVTWNSGSLSSGVHTFPAVLQSDLYTLSSSVTVPSSTWPSETVTCNVAHPASSTKVDKKIVPRDCGCKPCICEPKEVEDVFIFPPKPKDVLTITLTPKVTCVVVDISKDDPEVQFSWFVDDVEVHTAQTQPREEQFNSTFRSVSELPIMHQDWLNGKEFKCRVNSAAFPAPIEKTISKTKGRPKAPQVYTIPPPKEQMAKDKVSLTCMITDFFPEDITVEWQWNGQPAENYKNTQPIMDTDGSYFVYSKLNVQKSNWEAGNTFTCSVLHEGLHNHHTEKSLSHSPGK
light: not shown
notes: copies: 2 + 2
relative mFcγRIII-binding activity (mIgG1 = 1) [1]: 2.14 fold
relative mFcγRII-binding activity (mIgG1 = 1) [2]: 14 fold

B3: H237-MB681/MRAL-k0 (antibody)
heavy: QVQLQESGPGLVKPSETLSLTCAVSGHSISHDHAWSWVRQPPGEGLEWIGFISYSGITNYNPSLQGRVTISRDNSKNTLYLQMNSLRAEDTAVYYCARSLARTTAMDYWGEGTLVTVSSAKTTPPSVYPLAPGSAAQTNSMVTLGCLVKGYFPEPVTVTWNSGSLSSGVHTFPAVLQSDLYTLSSSVTVPSSTWPSETVTCNVAHPASSTKVDKKIVPRDCGCKPCICEPKEVEDVFIFPPKPKDVLTITLTPKVTCVVVDISKDDPEVQFSWFVDDVEVHTAQTQPREEQFNSTFRSVSELPIMHQDWLNGKEFKCRVNSAAFPAPIEKTISKTKGRPKAPQVYTIPPPKEQMAKDKVSLTCMITDFFPEDITVEWQWNGQPAENYKNTQPIMDTDGSYFVYSKLNVQKSNWEAGNTFTCSVLHEGLHNHHTEKSLSHSPGK
light: not shown
notes: copies: 2 + 2
relative mFcγRIII-binding activity (mIgG1 = 1) [1]: 1.83 fold
relative mFcγRII-binding activity (mIgG1 = 1) [2]: 13.9 fold

B4: H237-MB678/MRAL-k0 (antibody)
heavy: QVQLQESGPGLVKPSETLSLTCAVSGHSISHDHAWSWVRQPPGEGLEWIGFISYSGITNYNPSLQGRVTISRDNSKNTLYLQMNSLRAEDTAVYYCARSLARTTAMDYWGEGTLVTVSSAKTTPPSVYPLAPGSAAQTNSMVTLGCLVKGYFPEPVTVTWNSGSLSSGVHTFPAVLQSDLYTLSSSVTVPSSTWPSETVTCNVAHPASSTKVDKKIVPRDCGCKPCICEVKEVEDVFIFPPKPKDVLTITLTPKVTCVVVDISKDDPEVQFSWFVDDVEVHTAQTQPREEQFNSTFRSVSELPIMHQDWLNGKEFKCRVNSAAFPAPIEKTISKTKGRPKAPQVYTIPPPKEQMAKDKVSLTCMITDFFPEDITVEWQWNGQPAENYKNTQPIMDTDGSYFVYSKLNVQKSNWEAGNTFTCSVLHEGLHNHHTEKSLSHSPGK
light: not shown
notes: copies: 2 + 2
relative mFcγRIII-binding activity (mIgG1 = 1) [1]: 2.01 fold
relative mFcγRII-binding activity (mIgG1 = 1) [2]: 8.03 fold

B5: H237-MB676/MRAL-k0 (antibody)
heavy: QVQLQESGPGLVKPSETLSLTCAVSGHSISHDHAWSWVRQPPGEGLEWIGFISYSGITNYNPSLQGRVTISRDNSKNTLYLQMNSLRAEDTAVYYCARSLARTTAMDYWGEGTLVTVSSAKTTPPSVYPLAPGSAAQTNSMVTLGCLVKGYFPEPVTVTWNSGSLSSGVHTFPAVLQSDLYTLSSSVTVPSSTWPSETVTCNVAHPASSTKVDKKIVPRDCGCKPCICEPNEVEKVFIFPPKPKDVLTITLTPKVTCVVVDISKDDPEVQFSWFVDDVEVHTAQTQPREEQFNSTFRSVSELPIMHQDWLNGKEFKCRVNSAAFPAPIEKTISKTKGRPKAPQVYTIPPPKEQMAKDKVSLTCMITDFFPEDITVEWQWNGQPAENYKNTQPIMDTDGSYFVYSKLNVQKSNWEAGNTFTCSVLHEGLHNHHTEKSLSHSPGK
light: not shown
notes: copies: 2 + 2
relative mFcγRIII-binding activity (mIgG1 = 1) [1]: 0.12 fold
relative mFcγRII-binding activity (mIgG1 = 1) [2]: 0.22 fold

B6: H237-MB683/MRAL-k0 (antibody)
heavy: QVQLQESGPGLVKPSETLSLTCAVSGHSISHDHAWSWVRQPPGEGLEWIGFISYSGITNYNPSLQGRVTISRDNSKNTLYLQMNSLRAEDTAVYYCARSLARTTAMDYWGEGTLVTVSSAKTTPPSVYPLAPGSAAQTNSMVTLGCLVKGYFPEPVTVTWNSGSLSSGVHTFPAVLQSDLYTLSSSVTVPSSTWPSETVTCNVAHPASSTKVDKKIVPRDCGCKPCICETKEVEDVFIFPPKPKDVLTITLTPKVTCVVVDISKDDPEVQFSWFVDDVEVHTAQTQPREEQFNSTFRSVSELPIMHQDWLNGKEFKCRVNSAAFPAPIEKTISKTKGRPKAPQVYTIPPPKEQMAKDKVSLTCMITDFFPEDITVEWQWNGQPAENYKNTQPIMDTDGSYFVYSKLNVQKSNWEAGNTFTCSVLHEGLHNHHTEKSLSHSPGK
light: not shown
notes: copies: 2 + 2
relative mFcγRIII-binding activity (mIgG1 = 1) [1]: 0.9 fold
relative mFcγRII-binding activity (mIgG1 = 1) [2]: 7.7 fold

B7: H237-MB684/MRAL-k0 (antibody)
heavy: QVQLQESGPGLVKPSETLSLTCAVSGHSISHDHAWSWVRQPPGEGLEWIGFISYSGITNYNPSLQGRVTISRDNSKNTLYLQMNSLRAEDTAVYYCARSLARTTAMDYWGEGTLVTVSSAKTTPPSVYPLAPGSAAQTNSMVTLGCLVKGYFPEPVTVTWNSGSLSSGVHTFPAVLQSDLYTLSSSVTVPSSTWPSETVTCNVAHPASSTKVDKKIVPRDCGCKPCICQPKEVEDVFIFPPKPKDVLTITLTPKVTCVVVDISKDDPEVQFSWFVDDVEVHTAQTQPREEQFNSTFRSVSELPIMHQDWLNGKEFKCRVNSAAFPAPIEKTISKTKGRPKAPQVYTIPPPKEQMAKDKVSLTCMITDFFPEDITVEWQWNGQPAENYKNTQPIMDTDGSYFVYSKLNVQKSNWEAGNTFTCSVLHEGLHNHHTEKSLSHSPGK
light: not shown
notes: copies: 2 + 2
relative mFcγRIII-binding activity (mIgG1 = 1) [1]: 1.02 fold
relative mFcγRII-binding activity (mIgG1 = 1) [2]: 5.37 fold

B8: H237-MB679/MRAL-k0 (antibody)
heavy: QVQLQESGPGLVKPSETLSLTCAVSGHSISHDHAWSWVRQPPGEGLEWIGFISYSGITNYNPSLQGRVTISRDNSKNTLYLQMNSLRAEDTAVYYCARSLARTTAMDYWGEGTLVTVSSAKTTPPSVYPLAPGSAAQTNSMVTLGCLVKGYFPEPVTVTWNSGSLSSGVHTFPAVLQSDLYTLSSSVTVPSSTWPSETVTCNVAHPASSTKVDKKIVPRDCGCKPCICEDKEVEDVFIFPPKPKDVLTITLTPKVTCVVVDISKDDPEVQFSWFVDDVEVHTAQTQPREEQFNSTFRSVSELPIMHQDWLNGKEFKCRVNSAAFPAPIEKTISKTKGRPKAPQVYTIPPPKEQMAKDKVSLTCMITDFFPEDITVEWQWNGQPAENYKNTQPIMDTDGSYFVYSKLNVQKSNWEAGNTFTCSVLHEGLHNHHTEKSLSHSPGK
light: not shown
notes: copies: 2 + 2
relative mFcγRIII-binding activity (mIgG1 = 1) [1]: 1.68 fold
relative mFcγRII-binding activity (mIgG1 = 1) [2]: 7.57 fold

B9: H237-MB680/MRAL-k0 (antibody)
heavy: QVQLQESGPGLVKPSETLSLTCAVSGHSISHDHAWSWVRQPPGEGLEWIGFISYSGITNYNPSLQGRVTISRDNSKNTLYLQMNSLRAEDTAVYYCARSLARTTAMDYWGEGTLVTVSSAKTTPPSVYPLAPGSAAQTNSMVTLGCLVKGYFPEPVTVTWNSGSLSSGVHTFPAVLQSDLYTLSSSVTVPSSTWPSETVTCNVAHPASSTKVDKKIVPRDCGCKPCICENKEVEDVFIFPPKPKDVLTITLTPKVTCVVVDISKDDPEVQFSWFVDDVEVHTAQTQPREEQFNSTFRSVSELPIMHQDWLNGKEFKCRVNSAAFPAPIEKTISKTKGRPKAPQVYTIPPPKEQMAKDKVSLTCMITDFFPEDITVEWQWNGQPAENYKNTQPIMDTDGSYFVYSKLNVQKSNWEAGNTFTCSVLHEGLHNHHTEKSLSHSPGK
light: not shown
notes: copies: 2 + 2
relative mFcγRIII-binding activity (mIgG1 = 1) [1]: 1.75 fold
relative mFcγRII-binding activity (mIgG1 = 1) [2]: 8.97 fold

B10: H237-MB622/MRAL-k0 (antibody, mouse IgG1, kappa)
heavy: QVQLQESGPGLVKPSETLSLTCAVSGHSISHDHAWSWVRQPPGEGLEWIGFISYSGITNYNPSLQGRVTISRDNSKNTLYLQMNSLRAEDTAVYYCARSLARTTAMDYWGEGTLVTVSSAKTTPPSVYPLAPGSAAQTNSMVTLGCLVKGYFPEPVTVTWNSGSLSSGVHTFPAVLQSDLYTLSSSVTVPSSTWPSETVTCNVAHPASSTKVDKKIVPRDCGCKPCICTVPEVDDVFIFPPKPKDVLTITLTPKVTCVVVDISKDDPEVQFSWFVDDVEVHTAQTQPREEQFNSTFRSVSELPIMHQDWLNGKEFKCRVNSAAFPAPIEKTISKTKGRPKAPQVYTIPPPKEQMAKDKVSLTCMITDFFPEDITVEWQWNGQPAENYKNTQPIMDTDGSYFVYSKLNVQKSNWEAGNTFTCSVLHEGLHNHHTEKSLSHSPGK
light: not shown
notes: copies: 2 + 2
relative mFcγRIII-binding activity (mIgG1 = 1) [1]: 0.4 fold
relative mFcγRII-binding activity (mIgG1 = 1) [2]: 3.83 fold
